Assay [1] concerns the target T1, human amylin receptor (human calcitonin receptor + human RAMP3) (human) (UniProt P30988).
T1 sequence (looked up) 1: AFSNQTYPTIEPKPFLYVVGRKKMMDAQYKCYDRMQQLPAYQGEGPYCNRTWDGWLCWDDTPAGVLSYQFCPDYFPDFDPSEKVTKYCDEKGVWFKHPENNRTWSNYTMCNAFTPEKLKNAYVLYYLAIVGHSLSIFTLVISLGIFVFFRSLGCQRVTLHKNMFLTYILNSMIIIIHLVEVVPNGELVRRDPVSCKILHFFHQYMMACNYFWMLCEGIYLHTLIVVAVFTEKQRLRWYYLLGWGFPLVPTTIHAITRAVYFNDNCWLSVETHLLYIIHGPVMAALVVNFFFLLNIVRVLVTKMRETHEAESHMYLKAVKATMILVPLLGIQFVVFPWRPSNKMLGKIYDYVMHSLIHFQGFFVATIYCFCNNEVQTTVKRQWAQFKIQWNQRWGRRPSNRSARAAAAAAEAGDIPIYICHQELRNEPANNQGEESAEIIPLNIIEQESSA
T1 sequence (looked up) 2: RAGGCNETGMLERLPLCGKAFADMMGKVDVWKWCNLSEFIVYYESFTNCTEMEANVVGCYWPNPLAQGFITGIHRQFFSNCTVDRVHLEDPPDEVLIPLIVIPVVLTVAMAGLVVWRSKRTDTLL
Briefly: whole-cell competition vs 125I-rat amylin (Assay Va).

The target of assay [2] is T2, human calcitonin receptor (human, UniProt P30988 25-474).
T2 construct: whole, on cells; also called hCT-R; hCTR
T2 sequence (looked up): T1 sequence (looked up) 1
As to the kind of experiment: whole-cell competition vs 125I-human calcitonin (Assay VIIa). Here is the method:
The binding assay was performed using a BHK tk'ts 13 cell line was stably transfected with the human calcitonin receptor, and a CRE-responsive luciferase reporter gene.
The day before the assay the cells were Seeded into Poly-D-Lysin coated 384W Opaque White, BD BioCoat plates (10000 cells/well) and Incubated overnight at 37° C., 5% CO2, 95% humidity. […] The morning after, the plates were washed three times in HBSS (4° C.), and lyzed in Lysis buffer (0.1 M NaOH), 1% SDS. Scintillation cocktail (MicroScint40®) was added and the plates were shaken at 500 rpm for a short period. The plate was incubated at room temperature in the dark for 1 hour and Read on a TopCounter™ (Packard). The IC₅₀ was calculated using (one site binding competition analysis) GraphPad Prism5 as a measure of receptor affinity.

16 molecules from patent US20160272683A1 (Novo Nordisk, published 2016) can be followed below.

Numbered stars: 1 amine (or outer) side, 2 acyl side, 3 side chain; on linkers, the order of the positions; unused ones are H or OH. Ends that are not written are not given here. * marks the point of attachment. C20 diacid = O=C(O)CCCCCCCCCCCCCCCCCCC(=O)*; C18 diacid = O=C(O)CCCCCCCCCCCCCCCCC(=O)*; γGlu = O=C(O)[C@H](CCC(=O)[*:2])N[*:1]

B1: [N-terminal(C20 diacid-gGlu), des1, 2L, 4Q, 8L, 9V, 15Q, 16R, 19R, 21Q, 23Y, 27Q, 30S, 31Q, 32T, 33Y]mimylin (peptide)
peptide: {C20 diacid-γGlu}-LSQLSTLVLGRLSQRLHRLQTYPRTQTGSQTY-NH2
SMILES: CC(C)C[C@H](NC(=O)CC[C@H](NC(=O)CCCCCCCCCCCCCCCCCCC(=O)O)C(=O)O)C(=O)N[C@@H](CO)C(=O)N[C@@H](CCC(N)=O)C(=O)N[C@@H](CC(C)C)C(=O)N[C@@H](CO)C(=O)N[C@H](C(=O)N[C@@H](CC(C)C)C(=O)N[C@H](C(=O)N[C@@H](CC(C)C)C(=O)NCC(=O)N[C@@H](CCCNC(=N)N)C(=O)N[C@@H](CC(C)C)C(=O)N[C@@H](CO)C(=O)N[C@@H](CCC(N)=O)C(=O)N[C@@H](CCCNC(=N)N)C(=O)N[C@@H](CC(C)C)C(=O)N[C@@H](Cc1c[nH]cn1)C(=O)N[C@@H](CCCNC(=N)N)C(=O)N[C@@H](CC(C)C)C(=O)N[C@@H](CCC(N)=O)C(=O)N[C@H](C(=O)N[C@@H](Cc1ccc(O)cc1)C(=O)N1CCC[C@H]1C(=O)N[C@@H](CCCNC(=N)N)C(=O)N[C@H](C(=O)N[C@@H](CCC(N)=O)C(=O)N[C@H](C(=O)NCC(=O)N[C@@H](CO)C(=O)N[C@@H](CCC(N)=O)C(=O)N[C@H](C(=O)N[C@@H](Cc1ccc(O)cc1)C(N)=O)[C@@H](C)O)[C@@H](C)O)[C@@H](C)O)[C@@H](C)O)C(C)C)[C@@H](C)O
Turning to B1, the IC50 in assay [1] amounted to 10.7 nM.
Take ASEVSTAVLGRLSAELHELATLPRTETGSGSP-NH2 [[des1, 5V, 9V, 30S, 31G]mimylin]: in assay [1], the IC50 was 0.982 nM.

B2: [N-terminal(C20 diacid-gGlu), des1, 4G, 9V, 15Q, 21Q, 23Y, 30S, 31A, 32T, 33Y]mimylin (peptide)
peptide: {C20 diacid-γGlu}-ASGLSTAVLGRLSQELHELQTYPRTETGSATY-NH2
SMILES: CC(C)C[C@H](NC(=O)CNC(=O)[C@H](CO)NC(=O)[C@H](C)NC(=O)CC[C@H](NC(=O)CCCCCCCCCCCCCCCCCCC(=O)O)C(=O)O)C(=O)N[C@@H](CO)C(=O)N[C@H](C(=O)N[C@@H](C)C(=O)N[C@H](C(=O)N[C@@H](CC(C)C)C(=O)NCC(=O)N[C@@H](CCCNC(=N)N)C(=O)N[C@@H](CC(C)C)C(=O)N[C@@H](CO)C(=O)N[C@@H](CCC(N)=O)C(=O)N[C@@H](CCC(=O)O)C(=O)N[C@@H](CC(C)C)C(=O)N[C@@H](Cc1c[nH]cn1)C(=O)N[C@@H](CCC(=O)O)C(=O)N[C@@H](CC(C)C)C(=O)N[C@@H](CCC(N)=O)C(=O)N[C@H](C(=O)N[C@@H](Cc1ccc(O)cc1)C(=O)N1CCC[C@H]1C(=O)N[C@@H](CCCNC(=N)N)C(=O)N[C@H](C(=O)N[C@@H](CCC(=O)O)C(=O)N[C@H](C(=O)NCC(=O)N[C@@H](CO)C(=O)N[C@@H](C)C(=O)N[C@H](C(=O)N[C@@H](Cc1ccc(O)cc1)C(N)=O)[C@@H](C)O)[C@@H](C)O)[C@@H](C)O)[C@@H](C)O)C(C)C)[C@@H](C)O
For the molecule B2, the IC50 in assay [1] was found to be 0.244 nM.

B3: [N-terminal(C20 diacid-gGlu), 2L, 4G, 8L, 9V, 15Q, 21Q, 23Y, 27G, 30S, 31G, 32T, 33Y]mimylin (peptide)
peptide: {C20 diacid-γGlu}-ELSGLSTLVLGRLSQELHELQTYPRTGTGSGTY-NH2
SMILES: CC(C)C[C@H](NC(=O)CNC(=O)[C@H](CO)NC(=O)[C@H](CC(C)C)NC(=O)[C@H](CCC(=O)O)NC(=O)CC[C@H](NC(=O)CCCCCCCCCCCCCCCCCCC(=O)O)C(=O)O)C(=O)N[C@@H](CO)C(=O)N[C@H](C(=O)N[C@@H](CC(C)C)C(=O)N[C@H](C(=O)N[C@@H](CC(C)C)C(=O)NCC(=O)N[C@@H](CCCNC(=N)N)C(=O)N[C@@H](CC(C)C)C(=O)N[C@@H](CO)C(=O)N[C@@H](CCC(N)=O)C(=O)N[C@@H](CCC(=O)O)C(=O)N[C@@H](CC(C)C)C(=O)N[C@@H](Cc1c[nH]cn1)C(=O)N[C@@H](CCC(=O)O)C(=O)N[C@@H](CC(C)C)C(=O)N[C@@H](CCC(N)=O)C(=O)N[C@H](C(=O)N[C@@H](Cc1ccc(O)cc1)C(=O)N1CCC[C@H]1C(=O)N[C@@H](CCCNC(=N)N)C(=O)N[C@H](C(=O)NCC(=O)N[C@H](C(=O)NCC(=O)N[C@@H](CO)C(=O)NCC(=O)N[C@H](C(=O)N[C@@H](Cc1ccc(O)cc1)C(N)=O)[C@@H](C)O)[C@@H](C)O)[C@@H](C)O)[C@@H](C)O)C(C)C)[C@@H](C)O
Turning to B3, in assay [1], the IC50 was 2.56 nM.
LSGLSTAVLGRLSQELHELQTYPRTETGSQTY-NH2 [[des1, 2L, 4G, 9V, 15Q, 21Q, 23Y, 30S, 31Q, 32T, 33Y]mimylin]: the IC50 in assay [1] was 1.18 nM.
Same read-out and setting: the same measure for ASELTTAVLGRLSAELHELATLPRTETGTGTP-NH2 [[des1, 6T, 9V, 30T, 31G, 32T]mimylin]: 20.2 nM.
On to EASELSTAALGRLSAELHELATLPRTETGPESP-NH2 (also called Ex. #1) [mimylin], for which the 50% inhibitory concentration (IC50) in assay [2] came out at 0.431 nM.

B4: [N-terminal(C18 diacid), 2P, 9V]mimylin (peptide)
peptide: {C18 diacid}-EPSELSTAVLGRLSAELHELATLPRTETGPESP-NH2
SMILES: CC(C)C[C@H](NC(=O)[C@H](CCC(=O)O)NC(=O)[C@H](Cc1c[nH]cn1)NC(=O)[C@H](CC(C)C)NC(=O)[C@H](CCC(=O)O)NC(=O)[C@H](C)NC(=O)[C@H](CO)NC(=O)[C@H](CC(C)C)NC(=O)[C@H](CCCNC(=N)N)NC(=O)CNC(=O)[C@H](CC(C)C)NC(=O)[C@@H](NC(=O)[C@H](C)NC(=O)[C@@H](NC(=O)[C@H](CO)NC(=O)[C@H](CC(C)C)NC(=O)[C@H](CCC(=O)O)NC(=O)[C@H](CO)NC(=O)[C@@H]1CCCN1C(=O)[C@H](CCC(=O)O)NC(=O)CCCCCCCCCCCCCCCCC(=O)O)[C@@H](C)O)C(C)C)C(=O)N[C@@H](C)C(=O)N[C@H](C(=O)N[C@@H](CC(C)C)C(=O)N1CCC[C@H]1C(=O)N[C@@H](CCCNC(=N)N)C(=O)N[C@H](C(=O)N[C@@H](CCC(=O)O)C(=O)N[C@H](C(=O)NCC(=O)N1CCC[C@H]1C(=O)N[C@@H](CCC(=O)O)C(=O)N[C@@H](CO)C(=O)N1CCC[C@H]1C(N)=O)[C@@H](C)O)[C@@H](C)O)[C@@H](C)O
notes: also called Ex. #28
In the case of B4, in assay [2], the concentration for half-maximal inhibition (IC50) is 0.351 nM.

B5: [30S, 31G]mimylin (peptide)
peptide: EASELSTAALGRLSAELHELATLPRTETGSGSP-NH2
notes: backbone without side chain; also called Ex. #22bb; 22bb
Regarding B5, the IC50 in assay [2] was 0.481 nM.
As for {C18 diacid}-EASELSTAALGRLSAELHELATLPRTETGPESP-OH [[N-terminal(C18 diacid), C-terminal(-)]mimylin], the IC50 in assay [1] was 298 nM.
Same read-out and setting: the same measure for EASELSTAALGRLSAELHELATLPRTETGPESP-OH [[C-terminal(-)]mimylin]: 294 nM.
On the same count and under the same terms, the result for EASELSTAALGRLSAELHELATLPRTETGSGSP-NH2 reads 0.469 nM.
Consider ASELSTAALGHLSAELHELATLPRTETGSGSP-NH2 [[des1, 12H, 30S, 31G]mimylin], for which the IC50 in assay [1] was determined as 5.1 nM.

B6: [N-terminal(C20 diacid-gGlu), des1, 2L, 4G, 9V, 21S, 23Y, 30S, 31G, 32T, 33Y]mimylin (peptide)
peptide: {C20 diacid-γGlu}-LSGLSTAVLGRLSAELHELSTYPRTETGSGTY-NH2
SMILES: CC(C)C[C@H](NC(=O)CC[C@H](NC(=O)CCCCCCCCCCCCCCCCCCC(=O)O)C(=O)O)C(=O)N[C@@H](CO)C(=O)NCC(=O)N[C@@H](CC(C)C)C(=O)N[C@@H](CO)C(=O)N[C@H](C(=O)N[C@@H](C)C(=O)N[C@H](C(=O)N[C@@H](CC(C)C)C(=O)NCC(=O)N[C@@H](CCCNC(=N)N)C(=O)N[C@@H](CC(C)C)C(=O)N[C@@H](CO)C(=O)N[C@@H](C)C(=O)N[C@@H](CCC(=O)O)C(=O)N[C@@H](CC(C)C)C(=O)N[C@@H](Cc1c[nH]cn1)C(=O)N[C@@H](CCC(=O)O)C(=O)N[C@@H](CC(C)C)C(=O)N[C@@H](CO)C(=O)N[C@H](C(=O)N[C@@H](Cc1ccc(O)cc1)C(=O)N1CCC[C@H]1C(=O)N[C@@H](CCCNC(=N)N)C(=O)N[C@H](C(=O)N[C@@H](CCC(=O)O)C(=O)N[C@H](C(=O)NCC(=O)N[C@@H](CO)C(=O)NCC(=O)N[C@H](C(=O)N[C@@H](Cc1ccc(O)cc1)C(N)=O)[C@@H](C)O)[C@@H](C)O)[C@@H](C)O)[C@@H](C)O)C(C)C)[C@@H](C)O
B6: the IC50 in assay [1] came to 11.8 nM.
Same read-out and setting: the result for {C20 diacid-γGlu}-ASGLSTATLGRLSQELHELQTYPRTETGSGTY-NH2 [[N-terminal(C20 diacid-gGlu), des1, 4G, 9T, 15Q, 21Q, 23Y, 30S, 31G, 32T, 33Y]mimylin] reads 0.079 nM; that for ASELTTAVLGRLEAELHELTTLPRTETGTGTP-NH2 [[des1, 6T, 9V, 14E, 21T, 30T, 31G, 32T]mimylin], 71.4 nM.

What is called IC50 is the concentration at which inhibition is half-maximal.
